Assay results taken from patent publication US20020147129A1.

Target: embryonic chicken AT4 receptor (chicken)
Test: competition for [125I]Ang IV binding, E13 chicken chorioallantoic membranes

Chain of embryonic chicken AT4 receptor (chicken) (F1NNE7 entry or part of it): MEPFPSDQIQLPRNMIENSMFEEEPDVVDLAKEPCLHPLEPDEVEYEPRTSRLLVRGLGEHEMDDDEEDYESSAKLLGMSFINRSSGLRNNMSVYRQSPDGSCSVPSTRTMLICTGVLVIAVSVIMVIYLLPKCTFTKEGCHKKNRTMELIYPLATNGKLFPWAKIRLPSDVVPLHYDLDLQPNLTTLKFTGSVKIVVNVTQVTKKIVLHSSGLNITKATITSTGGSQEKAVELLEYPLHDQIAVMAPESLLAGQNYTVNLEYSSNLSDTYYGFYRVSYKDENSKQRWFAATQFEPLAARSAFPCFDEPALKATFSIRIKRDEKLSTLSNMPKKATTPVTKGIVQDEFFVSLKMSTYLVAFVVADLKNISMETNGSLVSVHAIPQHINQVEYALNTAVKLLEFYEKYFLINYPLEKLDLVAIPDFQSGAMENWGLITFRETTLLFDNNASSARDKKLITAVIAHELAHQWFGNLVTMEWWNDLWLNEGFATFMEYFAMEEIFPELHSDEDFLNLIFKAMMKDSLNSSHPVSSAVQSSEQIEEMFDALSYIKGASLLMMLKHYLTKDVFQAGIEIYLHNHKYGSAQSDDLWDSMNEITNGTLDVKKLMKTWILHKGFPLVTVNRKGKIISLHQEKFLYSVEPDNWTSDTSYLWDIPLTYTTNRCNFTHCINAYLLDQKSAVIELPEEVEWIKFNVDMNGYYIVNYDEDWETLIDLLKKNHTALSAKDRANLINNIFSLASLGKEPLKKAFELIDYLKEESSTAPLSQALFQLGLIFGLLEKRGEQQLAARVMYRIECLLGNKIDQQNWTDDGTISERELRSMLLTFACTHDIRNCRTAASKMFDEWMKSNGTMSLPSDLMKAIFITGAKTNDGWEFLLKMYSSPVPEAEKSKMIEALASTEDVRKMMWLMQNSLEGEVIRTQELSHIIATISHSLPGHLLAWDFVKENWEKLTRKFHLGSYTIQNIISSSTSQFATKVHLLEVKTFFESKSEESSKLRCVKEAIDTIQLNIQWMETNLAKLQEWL

Nle^1-Y-I-amide (peptide)
IC50: 2200 nM
